Test results from patent US20060234343A1 (published 2006).

Molecular target: T1, EGFR501Fcflag (ErbB1501.Fc fusion protein homodimer) (human, UniProt P00533 25-525)
T1 construct: Captured from 293T supernatant on protein G coated wells; also called truncated form of the extracellular domain of the EGF receptor, expressed as an Fc fusion homodimer; not shown: spacer peptide N-terminal of the Fc; human IgG1 Fc region (from a genomic fragment)
Test: Eu-EGF displacement by unlabelled EGF from the Fc fusion homodimer captured on protein G; the reference value is from the literature
Procedure: Ligand binding assays. The wells of a 96-well Lumitrac 600 plate (Greiner) were coated with protein G (2 ug/ml in 10 mM sodium citrate buffer, pH 9.6; Sigma). […] After incubation at room temperature, wells were aspirated, washed in TBS plus 0.05% Tween-20, and Enhancement Solution (Perkin-Elmer) added to each well for 20 minutes.

B1: EGF (species not stated) (ligand)
chain: NSYPGCPSSYDGYCLNGGVCMHIESLDSYTCNCVIGYSGDRCQTRDLRWWELR
modifications: In the FIG. 8 assay the trace is EGF mono-labelled with a europium chelate (Wallac); site not stated. The EGF in the ultracentrifuge is unlabelled.
notes: Kept apart from hEGF and mEGF because these experiments say only EGF; the two experiments may have used different EGF; also called unlabelled EGF; Eu-EGF (Wallac)
- fold higher affinity than that reported for the full-length ErbB1 ectodomain-Fc fusion protein: 10 fold
